# Laboratory results reported in publication doi:10.1101/2021.04.08.438961 (bioRxiv, 2021).
# Residue numbers refer to the chain shown, from its start. Names and notes keep the numbering of the source. Values joined by “and” are separate entries in the source; they are usually repeats but may differ in a detail not shown here. Equal entries are not always repeated.
# B1: MinD (natural protein)
# chain: MARIIVVTSGKGGVGKTTSSAAIATGLAQKGKKTVVIDFDIGLRNLDLIMGCERRVVYDFVNVIQGDATLNQALIKDKRTENLYILPASQTRDKDALTREGVAKVLDDLKAMDFEFIVCDSPAGIETGALMALYFADEAIITTNPEVSSVRDSDRILGILASKSRRAENGEEPIKEHLLLTRYNPGRVSRGDMLSMEDVLEILRIKLVGVIPEDQSVLRASNQGEPVILDINADAGKAYADTVERLLGEERPFRFIEEEKKGFLKRLFGG
# B2: MinD D40A (natural protein)
# chain: B1 chain with D40A
# B3: MinE (natural protein)
# chain: MALLDFFLSRKKNTANIAKERLQIIVAERRRSDAEPHYLPQLRKDILEVICKYVQIDPEMVTVQLEQKDGDISILELNVTLPEAEELK
# Columns and labels:
# [1] = biological target: the molecule itself; assay: mass-sensitive particle tracking
# MinD = biological target: B1; assay: mass-sensitive particle tracking
Binder,stoichiometry N [1],binding result (MinD)
B1,2 and > 2 and 3 and 4,
B2,2 and 4,
B3,,binds
